Data on two substances can be found in patent US20220119552A1.

Test [1] deals with CD3 on human T cells (human) (UniProt P07766). Description: flow cytometry on T cells coated with 1 µg/mL antibody.
Test [2] has as its target Carcinoembryonic antigen (CEA) on CEA positive cells (UniProt P06731). Put plainly: cell-based or functional assay.
Chain of UniProt P06731 (P06731 35-702): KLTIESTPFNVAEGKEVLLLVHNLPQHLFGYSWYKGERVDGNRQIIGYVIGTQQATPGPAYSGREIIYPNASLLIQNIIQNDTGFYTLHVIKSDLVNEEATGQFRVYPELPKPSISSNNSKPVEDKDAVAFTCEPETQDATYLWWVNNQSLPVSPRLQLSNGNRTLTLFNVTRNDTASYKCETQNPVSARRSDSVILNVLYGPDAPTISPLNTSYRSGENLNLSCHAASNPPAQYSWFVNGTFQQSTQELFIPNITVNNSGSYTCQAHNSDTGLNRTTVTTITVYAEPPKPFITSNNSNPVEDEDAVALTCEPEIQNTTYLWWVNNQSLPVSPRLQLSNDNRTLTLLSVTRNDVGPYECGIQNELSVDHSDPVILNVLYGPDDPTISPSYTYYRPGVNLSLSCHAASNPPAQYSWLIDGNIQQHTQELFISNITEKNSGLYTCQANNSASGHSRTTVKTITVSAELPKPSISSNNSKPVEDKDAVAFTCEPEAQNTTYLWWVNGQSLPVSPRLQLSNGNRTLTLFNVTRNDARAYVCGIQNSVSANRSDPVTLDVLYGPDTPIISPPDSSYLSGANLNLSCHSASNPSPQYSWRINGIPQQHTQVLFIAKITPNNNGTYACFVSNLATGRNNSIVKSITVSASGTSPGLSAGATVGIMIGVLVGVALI

Chain of UniProt P07766 (P07766 23-207, chain 1 of 3): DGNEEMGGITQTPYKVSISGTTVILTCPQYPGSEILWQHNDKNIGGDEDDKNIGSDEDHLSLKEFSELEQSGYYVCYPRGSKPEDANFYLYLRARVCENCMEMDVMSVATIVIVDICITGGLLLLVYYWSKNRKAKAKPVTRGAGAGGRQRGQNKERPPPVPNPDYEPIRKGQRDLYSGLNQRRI
Chain of UniProt P07766 (P04234 22-171, chain 2 of 3, further chain): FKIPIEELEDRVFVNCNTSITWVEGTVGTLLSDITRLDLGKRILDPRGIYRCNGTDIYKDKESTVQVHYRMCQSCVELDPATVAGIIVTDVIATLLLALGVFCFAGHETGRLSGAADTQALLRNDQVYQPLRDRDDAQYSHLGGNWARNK
Chain of UniProt P07766 (P09693 23-182, chain 3 of 3, further chain): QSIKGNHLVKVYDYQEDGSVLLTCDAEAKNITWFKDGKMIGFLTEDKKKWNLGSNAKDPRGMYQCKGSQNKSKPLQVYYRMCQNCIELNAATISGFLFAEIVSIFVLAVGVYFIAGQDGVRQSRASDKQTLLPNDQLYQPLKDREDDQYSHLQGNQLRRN

“DBCO-hOKT3 (humanized anti-human CD3 antibody hOKT3 conjugated to DBCO)” registered a percent of cells labelled in test [1] above 90%.

On to “dbBiTE (dual specific bivalent bispecific T-cell engaging antibody: DBCO-hOKT3 clicked to azide-M5A) (bispecific antibody)”, for which, in test [2], the redirected cell lysis, T-cells coated with preformed dbBiTEs, E:T 10:1 worked out at 90% and the redirected cell lysis, on-cell (in situ) generated dbBiTE coated T-cells, E:T 10:1 is 60%.
